{
  "source": "paper PMC4012256",
  "proteins": {"B1": {"name": "integrin αV subunit (of αVβ3): αV(N266Q)β3(N339S) (protein)", "parent chain": "MAFPPRRRLRLGPRGLPLLLSGLLLPLCRAFNLDVDSPAEYSGPEGSYFGFAVDFFVPSASSRMFLLVGAPKANTTQPGIVEGGQVLKCDWSSTRRCQPIEFDATGNRDYAKDDPLEFKSHQWFGASVRSKQDKILACAPLYHWRTEMKQEREPVGTCFLQDGTKTVEYAPCRSQDIDADGQGFCQGGFSIDFTKADRVLLGGPGSFYWQGQLISDQVAEIVSKYDPNVYSIKYNNQLATRTAQAIFDDSYLGYSVAVGDFNGDGIDDFVSGVPRAARTLGMVYIYDGKNMSSLYNFTGEQMAAYFGFSVAATDINGDDYADVFIGAPLFMDRGSDGKLQEVGQVSVSLQRASGDFQTTKLNGFEVFARFGSAIAPLGDLDQDGFNDIAIAAPYGGEDKKGIVYIFNGRSTGLNAVPSQILEGQWAARSMPPSFGYSMKGATDIDKNGYPDLIVGAFGVDRAILYRARPVITVNAGLEVYPSILNQDNKTCSLPGTALKVSCFNVRFCLKADGKGVLPRKLNFQVELLLDKLKQKGAIRRALFLYSRSPSHSKNMTISRGGLMQCEELIAYLRDESEFRDKLTPITIFMEYRLDYRTAADTTGLQPILNQFTPANISRQAHILLDCGEDNVCKPKLEVSVDSDQKKIYIGDDNPLTLIVKAQNQGEGAYEAELIVSIPLQADFIGVVRNNEALARLSCAFKTENQTRQVVCDLGNPMKAGTQLLAGLRFSVHQQSEMDTSVKFDLQIQSSNLFDKVSPVVSHKVDLAVLAAVEIRGVSSPDHVFLPIPNWEHKENPETEEDVGPVVQHIYELRNNGPSSFSKAMLHLQWPYKYNNNTLLYILHYDIDGPMNCTSDMEINPLRIKISSLQTTEKNDTVAGQGERDHLITKRDLALSEGDIHTLGCGVAQCLKIVCQVGRLDRGKSAILYVKSLLWTETFMNKENQNHSYSLKSSASFNVIEFPYKNLPIEDITNSTLVTTNVTWGIQPAPMPVPVWVIILAVLAGLLLLAVLVFVMYRMGFFKRVRPPQEEQEREQLQPHENGEGNSET"}},
  "test": "HEK293T adhesion to FN-coated surface, crystal violet, Ca2+-Mg2+",
  "settings": "glycan lost; control: αVβ3(N339S)",
  "data": [
    {"protein": "B1", "values": [
      {"measurement": "other: cell adhesion, percent_of_wt", "result": "decreases"}
    ]}
  ]
}
